What all share (details): Sus scrofa
Compound in data set [1]: C[C@H]1[C@H](C)CC[C@]2(C(=O)O)CC[C@]3(C)C(=CC[C@@H]4[C@@]5(C)C[C@@H](O)[C@H](O)C(C)(C)[C@@H]5CC[C@]43C)[C@H]12
Put plainly: Inhibition of porcine pancreatic alpha-amylase assessed as Km for substrate using starch as substrate at 31.2 uM by Michaelis-Menten plot analysis (reference value: 2.48 +/- 0.24 mg/ml).

Compound in data set [2]: C[C@H]1[C@H](C)CC[C@]2(C(=O)O)CC[C@]3(C)C(=CC[C@@H]4[C@@]5(C)C[C@@H](O)[C@H](O)C(C)(C)[C@@H]5CC[C@]43C)[C@H]12
In words: Inhibition of porcine pancreatic alpha-amylase assessed as Vmax for substrate using starch as substrate at 15.6 uM by Michaelis-Menten plot analysis (reference value: 28.6 +/- 1.8 microg/ml/min).

Compound in data set [3]: C[C@H]1[C@H](C)CC[C@]2(C(=O)O)CC[C@]3(C)C(=CC[C@@H]4[C@@]5(C)C[C@@H](O)[C@H](O)C(C)(C)[C@@H]5CC[C@]43C)[C@H]12
Put plainly: Inhibition of porcine pancreatic alpha-amylase assessed as Km for substrate using starch as substrate at 15.6 uM by Michaelis-Menten plot analysis (reference value: 2.48 +/- 0.24 mg/ml).

Compound in data set [4]: C[C@H]1[C@H](C)CC[C@]2(C(=O)O)CC[C@]3(C)C(=CC[C@@H]4[C@@]5(C)C[C@@H](O)[C@H](O)C(C)(C)[C@@H]5CC[C@]43C)[C@H]12
Put plainly: Inhibition of porcine pancreatic alpha-amylase assessed as Vmax for substrate using starch as substrate at 31.2 uM by Michaelis-Menten plot analysis (reference value: 28.6 +/- 1.8 microg/ml/min).

B1: Pancreatic alpha-amylase (Sus scrofa), P00690 (protein)
chain: MKLFLLLSAFGFCWAQYAPQTQSGRTSIVHLFEWRWVDIALECERYLGPKGFGGVQVSPPNENIVVTNPSRPWWERYQPVSYKLCTRSGNENEFRDMVTRCNNVGVRIYVDAVINHMCGSGAAAGTGTTCGSYCNPGNREFPAVPYSAWDFNDGKCKTASGGIESYNDPYQVRDCQLVGLLDLALEKDYVRSMIADYLNKLIDIGVAGFRIDASKHMWPGDIKAVLDKLHNLNTNWFPAGSRPFIFQEVIDLGGEAIQSSEYFGNGRVTEFKYGAKLGTVVRKWSGEKMSYLKNWGEGWGFMPSDRALVFVDNHDNQRGHGAGGASILTFWDARLYKVAVGFMLAHPYGFTRVMSSYRWARNFVNGQDVNDWIGPPNNNGVIKEVTINADTTCGNDWVCEHRWRQIRNMVWFRNVVDGQPFANWWANGSNQVAFGRGNRGFIVFNNDDWQLSSTLQTGLPGGTYCDVISGDKVGNSCTGIKVYVSSDGTAQFSISNSAEDPFIAIHAESKL
In the case of B1, the Michaelis constant (Km) in data set [1] amounted to 2.69 mg/mL; in data set [3], 2.28 mg/mL. Besides, the figures for the Vmax in data set [2] and in data set [4] were 21 µg/mL/min and 14.3 µg/mL/min, respectively.

Usually Km stands for the concentration of substrate that gives half-maximal velocity.

These data come from ChEMBL document CHEMBL4043266, “Pentacyclic triterpenes as α-glucosidase and α-amylase inhibitors: Structure-activity relationships and the synergism with acarbose” (Bioorg Med Chem Lett, 2017).
